The experiment concerns the target T1, proteasome subunit α2-K160C (S. cerevisiae, UniProt P23639 1-250, K160C).
T1 construct: 20S proteasome core particle subunit α2, S. cerevisiae, with an engineered cysteine at the α2-α3 interface; Detected with an anti-His antibody (TetraHis); also called His (α2); source: S. cerevisiae (WT or pba3Δ), in cell extract
T1 sequence (looked up): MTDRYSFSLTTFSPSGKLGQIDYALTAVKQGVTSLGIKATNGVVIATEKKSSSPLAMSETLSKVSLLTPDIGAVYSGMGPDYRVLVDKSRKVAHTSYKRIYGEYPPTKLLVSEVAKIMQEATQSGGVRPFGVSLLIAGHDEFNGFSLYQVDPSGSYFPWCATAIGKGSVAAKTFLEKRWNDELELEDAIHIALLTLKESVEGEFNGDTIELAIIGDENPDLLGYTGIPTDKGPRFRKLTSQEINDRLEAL
Nature of the experiment: cross-linking; engineered disulfide crosslinking in yeast extracts (WT or pba3Δ, empty vector or α1 overexpressed); 250 µM CuCl2, 25 °C, 10 minutes; 50 mM HEPES pH 7.5, 150 mM NaCl, 5 mM MgCl2, 2 mM ATP; non-reducing SDS-PAGE, anti-His immunoblot; reversed by DTT. To be noted: partners not purified. On the technique in general: A western blot detects proteins with antibodies after separation by electrophoresis.

Experimental findings from paper PMC6712033, “Proteasome subunit α1 overexpression preferentially drives canonical proteasome biogenesis and enhances stress tolerance in yeast” (Scientific Reports, 2019) are described below.

B1: proteasome subunit α3-L56C (natural protein, S. cerevisiae, UniProt P23638 1-258, looked up)
chain: MGSRRYDSRTTIFSPEGRLYQVEYALESISHAGTAIGIMASDGIVLAAERKVTSTCLEQDTSTEKLYKLNDKIAVAVAGLTADAEILINTARIHAQNYLKTYNEDIPVEILVRRLSDIKQGYTQHGGLRPFGVSFIYAGYDDRYGYQLYTSNPSGNYTGWKAISVGANTSAAQTLLQMDYKDDMKVDDAIELALKTLSKTTDSSALTYDRLEFATIRKGANDGEVYQKIFKPQEIKDILVKTGITKKDEDEEADEDMK
notes: 20S proteasome core particle subunit α3, S. cerevisiae, with an engineered cysteine at the α2-α3 interface; source: S. cerevisiae (WT or pba3Δ), in cell extract
Consider B1, for which the “fold increase in crosslinking (α1 overexpressed against empty vector, pba3Δ cells)” value is 1.76 fold.
